Data on three molecules can be found in patent US20230384326A1 (CANON MEDICAL SYSTEMS, published 2023).

The target of experiment [1] is T1, mCRP (99) peptide (human).
T1 peptide: EILFEVPEVTC
The experiment is described as follows: solid phase peptide ELISA. Here is the method: (§1) Epitope analysis was performed by the following procedure. [0200] (a) Peptides were immobilized on a plate by standing at 50 ng/well (50 μL/well) for 16 hours at 4° C. […] (b) Solid phase peptides were washed twice with Dulbecco's PBS (D-PBS) (200 μL/well). […] (c) Blocking was performed by adding 200 μL of D-PBS containing 0.1% BSA and 0.05% NaN₃ to each well and leaving it at 4° C. overnight. […] (d) Each well was washed twice with the washing buffer. [0204] (e) The antibody was diluted to 1 μg/mL with the dilution buffer and the diluted solution was added to each well (50 μL/well) and left at 37° C. for 30 minutes. […] (f) Each well was washed four or more times with the washing buffer. […] (g) Anti-mouse IgG (γ-specific)-HRP, a labeled antibody, was added to each well (50 μL/well) and left at 37° C. for 30 minutes. [0207] (h) Each well was washed four or more times with the washing buffer. […] (i) A chromogenic reaction was started by adding a substrate solution (400 μg/mL) to each well (100 μL/well), and the reaction was allowed to proceed for 15 minutes at room temperature in the dark. [0209] (j) After 15 minutes, the reaction was stopped by addition of 1 mol/L sulfuric acid (100 μL/well), and absorbance (490 nm) was measured.
In the above (e), the same result was obtained even when the antibody concentration added to each well was changed to 5 μg/mL. […]
A general note: An ELISA detects its analyte on a solid surface through an enzyme-linked reagent.

The target in experiment [2] is T2, mCRP (109) peptide (human).
T2 peptide: VAPVHICTSWC
Put plainly: solid phase peptide ELISA, antibody 1 ug/mL. Here is the method:
as §1
(§2) In the above (e), the same result was obtained even when the antibody concentration added to each well was changed to 5 μg/mL. […] Accordingly, it is believed that there are not only one kind of epitope but also a plurality of kinds of epitopes of human denatured CRP-specific monoclonal antibodies.

Experiment [3] addresses T3, mCRP (199) peptide (human).
T3 peptide: SPNVLNWRALC
Put plainly: solid phase peptide ELISA, antibody 1 ug/mL. The protocol: as §1, §2

The target of experiment [4] is T4, mCRP (89) peptide (human).
T4 peptide: IGYSFTVGGSC
The experiment is described as follows: solid phase peptide ELISA, antibody 1 ug/mL. The protocol: as §1, §2

Experiment [5] has as its target T5, mCRP (29) peptide (human).
T5 peptide: FPKESDTSYVC
Put plainly: solid phase peptide ELISA, antibody 1 ug/mL. The protocol: as §1, §2

The target of experiment [6] is T6, mCRP (39) peptide (human).
T6 peptide: SLKAPLTKPLC
Put plainly: solid phase peptide ELISA, antibody 1 ug/mL. Here is the method: as §1, §2

Experiment [7] has as its target T7, mCRP (69) peptide (human).
T7 peptide: IFSYATKRQDC
The experiment is described as follows: solid phase peptide ELISA, antibody 1 ug/mL. Here is the method: as §1, §2

Experiment [8] concerns the target T8, mCRP (149) peptide (human).
T8 peptide: ASIILGQEQDC
Put plainly: solid phase peptide ELISA, antibody 1 ug/mL. The protocol:
as §1, §2

In experiment [9] the target is T9, mCRP (189) peptide (human).
T9 peptide: INTIYLGGPFC
Put plainly: solid phase peptide ELISA, antibody 1 ug/mL. The protocol: as §1, §2

Experiment [10] addresses T10, mCRP (139) peptide (human).
T10 peptide: LKKGYTVGAEC
The experiment is described as follows: solid phase peptide ELISA, antibody 1 ug/mL. The protocol:
as §1, §2

The target in experiment [11] is T1, mCRP (99) peptide. The experiment is described as follows: solid phase peptide ELISA, antibody 1 ug/mL. Here is the method:
as §1, §2

In experiment [12] the target is T11, mCRP (179) peptide (human).
T11 peptide: MWDFVLSPDEC
Put plainly: solid phase peptide ELISA, antibody 1 ug/mL. The protocol: as §1, §2

For experiment [13], the target named is T12, mCRP (129) peptide (human).
T12 peptide: VDGKPRVRKSC
The experiment is described as follows: solid phase peptide ELISA, antibody 1 ug/mL. Here is the method:
as §1, §2

Experiment [14] has as its target T13, mCRP (209) peptide (human).
T13 peptide: KYEVQGEVFTKPQLWPC
Put plainly: solid phase peptide ELISA, antibody 1 ug/mL. The protocol: as §1, §2

Experiment [15] has as its target T14, mCRP (119) peptide (human).
T14 peptide: ESASGIVEFWC
Put plainly: solid phase peptide ELISA, antibody 1 ug/mL. Here is the method: as §1, §2

Experiment [16] concerns the target T15, mCRP (169) peptide (human).
T15 peptide: SLVGDIGNVNC
The experiment is described as follows: solid phase peptide ELISA, antibody 1 ug/mL. Here is the method: as §1, §2

The target of experiment [17] is T16, mCRP (19) peptide (human).
T16 peptide: QTDMSRKAFVC
Put plainly: solid phase peptide ELISA, antibody 1 ug/mL. Here is the method: as §1, §2

Experiment [18] concerns the target T17, mCRP (79) peptide (human).
T17 peptide: NEILIFWSKDC
Put plainly: solid phase peptide ELISA, antibody 1 ug/mL. Here is the method: as §1, §2

Experiment [19] has as its target T18, mCRP (49) peptide (human).
T18 peptide: KAFTVCLHFYC
The experiment is described as follows: solid phase peptide ELISA, antibody 1 ug/mL. Here is the method: as §1, §2

The target of experiment [20] is T19, mCRP (159) peptide (human).
T19 peptide: SFGGNFEGSQC
The experiment is described as follows: solid phase peptide ELISA, antibody 1 ug/mL. Here is the method:
as §1, §2

The target in experiment [21] is T20, mCRP (59) peptide (human).
T20 peptide: TELSSTRGYSC
Put plainly: solid phase peptide ELISA, antibody 1 ug/mL. Here is the method:
as §1, §2

Experiment [22] deals with T21, mCRP (61-90) peptide (human).
T21 peptide: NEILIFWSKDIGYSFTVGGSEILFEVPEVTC
Put plainly: solid phase peptide ELISA (part 2).

The target in experiment [23] is T22, mCRP (151-180) peptide (human).
T22 peptide: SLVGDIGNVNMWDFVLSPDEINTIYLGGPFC
Put plainly: solid phase peptide ELISA (part 2).

For experiment [24], the target named is T23, mCRP (31-60) peptide (human).
T23 peptide: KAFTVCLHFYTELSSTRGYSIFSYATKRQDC
Put plainly: solid phase peptide ELISA (part 2).

In experiment [25] the target is T24, mCRP (121-150) peptide (human).
T24 peptide: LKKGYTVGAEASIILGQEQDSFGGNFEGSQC
Put plainly: solid phase peptide ELISA (part 2).

The target of experiment [26] is T25, mCRP (181-206) peptide (human).
T25 peptide: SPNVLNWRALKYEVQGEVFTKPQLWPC
Put plainly: solid phase peptide ELISA (part 2).

B1: human denatured CRP-specific antibody produced from hybridoma mCRP-18A (antibody, mouse IgG2a)
heavy: EVQLQQSGAEFVKPGTSVKLSCTASGFNIKDYYIHWVKQRTEQGLEWIGRIDPEDGETKYAPKFQGKATITADASSNTAYLQLSSLTSEDTAVYYCVSRMYYYGSQGLFDFWGQGTTLTVSSAKTTAPSVYPLAPVCGGTTGSSVTLGCLVKGYFPEPVTLTWNSGSLSSGVHTFPALLQSGLYTLSSSVTVTSNTWPSQTITCNVAHPASSTKVDKKIEPRVPITQNPCPPLKECPPCAAPDLLGGPSVFIFPPKIKDVLMISLSPMVTCVVVDVSEDDPDVQISWFVNNVEVHTAQTQTHREDYNSTLRVVSALPIQHQDWMSGKEFKCKVNNRALPSPIEKTISKPRGPVRAPQVYVLPPPAEEMTKKEFSLTCMITGFLPAEIAVDWTSNGRTEQNYKNTATVLDSDGSYFMYSKLRVQKSTWERGSLFACSVVHEGLHNHLTTKTISHSPGK
light: DIVMTQSPSSLTVTAGEKVTMGCKSSQSLLNSANQKNYLTWYRQKPGQPPKLLIYWASTRESGVPDRFTGSGSGTDFTLTISSVQAEDLAVYYCQNDYNYPLTCGAGTKLDLKRADAAPTVSIFPPSSEQLTSGGASVVCFLNNFYPKDINVKWKIDGSERQNGVLNSWTDQDSKDSTYSMSSTLTLTKDEYERHNSYTCEATHKTSTSPIVKSFNRNEC
notes: Mouse IgG2a, kappa; also called 18A antibody
With B1, in experiment [1], the binding result is listed as “no binding”.

B2: human denatured CRP-specific antibody produced from hybridoma mCRP-12C (antibody, mouse IgG1, V domains shown)
VH: EVQLQQSGAELVKPGASVKLSCTASGFNIKDYYIHWVKQRTDQGLEWIGRIDPEDDETKYAPKFQGKATIITDTSSNTAYLHLSSLTSADTAVYYCASRIYYYDIKGLFDYWGQGTTLTVSS
VL: DIVMTQAPSSLTVTAGEKVTMTCKSSQSLLNSGNQKNYLTWSQQKPGQPPKLLIYWASTRESGVPDRFTGSGSGTDFTLTISSVQAEDLAVYYCQNDYNYPITFGAGTKLELKR
notes: Mouse IgG1, kappa; also called 12C antibody
With B2, in experiment [1], the binding result is recorded as “no binding”.

B3: human denatured CRP-specific antibody produced from hybridoma mCRP-3C (antibody, mouse IgG2b, V domains shown)
VH: QVQLQQSGAELVRPGASVKLSCKALDYTFTDYEMHWVKQTPVHGLEWIGAIHPGRGGTAYNQKFKGKATLTADKSSSTAYMELSSLTSEDSGVYYCTSYHGGYWGQGTTLTVSS
VL: DVVMTQTPLSLPVSLGDQASISCRSSQSLVHSNENTYLLWYLQKPGQSPKLLIYKVSNRFSGVPDRFSGSGSGTDFTLKISRVEAEDLGVYFCSQTTHVPWTFGGGTKLEIKR
notes: Mouse IgG2b, kappa; also called 3C antibody
Consider B3, for which the “Absorbance (490 nm)” value in experiment [2] is -0.001 A490; in [3] it was 0.006 A490; in [4], 0 A490; in [5] it was -0.001 A490; in experiment [6], 0.001 A490; in experiment [7], 0.002 A490. Further, the “Absorbance (490 nm)” value in [8] was found to be 0.001 A490; in experiment [9], 0.007 A490; in experiment [10] it was 0.002 A490; in experiment [11], 1.58 A490; in experiment [12] it was 0.003 A490; in experiment [13] it was 0.002 A490. In addition, the “Absorbance (490 nm)” value is 0 A490 in experiment [14]; 0.005 A490 in experiment [15]; 0.001 A490 in [16]; 0.004 A490 in experiment [17]; 0 A490 in experiment [18]; 0 A490 in experiment [19]. The “Absorbance (490 nm)” value came to 0.002 A490 in experiment [20]; 0.001 A490 in experiment [21]; 1.98 A490 in [22]; 0.108 A490 in experiment [23]; 0.03 A490 in experiment [24]; 0.017 A490 in [25]. Besides, the “Absorbance (490 nm)” value in [26] turned out to be 0.006 A490.
